This is an account of results in patent US20070271623A1 (UNIVERSITY OF COPENHAGEN, published 2007).

For series [1], the target named is T1, mutant MKS1-S30A C3-truncation (histidine-tagged).
T1 chain: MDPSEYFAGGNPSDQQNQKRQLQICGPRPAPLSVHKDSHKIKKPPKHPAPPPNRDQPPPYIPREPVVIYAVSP

Series [2] has as its target T2, mutant full-length MKS1-S30A (histidine-tagged).
T2 chain: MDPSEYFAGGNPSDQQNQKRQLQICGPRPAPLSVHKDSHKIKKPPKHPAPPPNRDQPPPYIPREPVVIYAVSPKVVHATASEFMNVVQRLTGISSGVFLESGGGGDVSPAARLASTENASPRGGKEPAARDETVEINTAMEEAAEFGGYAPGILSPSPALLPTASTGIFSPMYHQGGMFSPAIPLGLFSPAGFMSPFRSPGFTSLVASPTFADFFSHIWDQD

B1: HA (influenza hemagglutin antigen)-tagged MPK4 (protein)
chain: YPYDVPDYAYPYDVPDYAYPYDVPDYAYPYDVPDYAYPYDVPDYAYPYDVPDYAMSAESCFGSSGDQSSSKGVATHGGSYVQYNVYGNLFEVSRKYVPPLRPIGRGAYGIVCAATNSETGEEVAIKKIGNAFDNIIDAKRTLREIKLLKHMDHENVIAVKDIIKPPQRENFNDVYIVYELMDTDLHQIIRSNQPLTDDHCRFFLYQLLRGLKYVHSANVLHRDLKPSNLLLNANCDLKLGDFGLARTKSETDFMTEYVVTRWYRAPELLLNCSEYTAAIDIWSVGCILGETMTREPLFPGKDYVHQLRLITELIGSPDDSSLGFLRSDNARRYVRQLPQYPRQNFAARFPNMSAGAVDLLEKMLVFDPSRRITVDEALCHPYLAPLHDINEEPVCVRPFNFDFEQPTLTEENIKELIYRETVKFNPQDSV
On to B1, for which the “in vitro phosphorylation assay (32P-γ-ATP, SDS-PAGE, phosphorimager)” value in series [1] is “the mutant C3 truncated MKS1 (C3-S30A) was not phosphorylated by HA-tagged MPK4”; in series [2], “the mutant full-length MKS1 (S30A) was phosphorylated”.
